For 13 molecules, Expression results are on record in patent US20230226096A1 (Orna Therapeutics, Inc., priority 2020, published 2023).

The labels stand for the following.
B1: Hepacivirus I (nucleic acid)
DNA: CAGGGTTTCGACCCTGGCCCGGATACCTATCGCCTTACGCCGAAAGGTAACGAGTAGGAGTCGGGTCCCCAGGCCCTTACCGCCACCAAGCCAGGTGGGGAGGTATGGGAGCCGGGGGGTGCAGCTGGTAGCTCCATGGGGGACGCCCCGTGAGCGGATGCTGCATCGATACCGGGTTAGCTCTCTGGGAGAGCGGCACTTGACACCACGAATCCGGGAACCGGACAATCGCCGGCGTGGGACGCGTTGCCTCCGTGGCCGAGCAATTTGGCATGCCCGTGGTGAAGAGTGATGGTGGGGGGGGGCCCCCCTTCCAGTACCGTACTGCCTGATAGGGTCTTGCCTCAAGCCCAGAGAGTCGAGGCTGAAAACCGCCATC
modifications: Hepacivirus I
B2: Pegivirus K (nucleic acid)
DNA: AGAATGGTGTGATCCGTCGCCGCTCCAGCGGAAAGCGGGCGGGATCTAGTGGTTAGGGTTGTTCGCGTAAATCCCACACTAGTGGTACGCTCGTATAACGTGGGAGCAGCCGGTGGGGTCGACCCCCCACCTGGCGGCTGCTGAGCACCGGACGAAGCGCGGGGGGTGAACGCTAACCCGCGGCCCGGGCTGCCAACGTTAGGCACGTCTTGGCTGGAAGACGTTAAACACAGGGCCCCCCCTCAACCCTGATCCGAGGCCAGAGACCAAGGTACGCCGCCCTTTTAAAGGCGTTACTCGTCCAATAGGATCTCTCCGGCGGGTTGTCAAACCTTGCTGGCCCTGGTGATGGTTACGGGAGGGGGTGGGGCGGGGAGTAGAAGCCCCGCCCGGCATGGGGGTACCAAGCTCGGCACGCCCAGCACGCGTGGCGTAGGGGAAAAATCCTTCGGGTGACCCCTGGTACCATAAAGTAATTAACATGAGCATGCCGCTAGGGTGTGCTTTTTCTTCCTTCCTTGGGAAGGCGGTGGCACC
modifications: Pegivirus K
B3: Equine hepacivirus (nucleic acid, listed as Hepacivirus sp.)
DNA: ACCTCCGTGCTATGCACGGTGCGTTGTCAGCGTTTTGCGCTTGCATGCGCTACACGCGTCGTCCAACGCGGAGGGATTCTTCCACATTACCATGTGTCACTCCCCCTATGGAGGGTTCCACCCCGCCCACACGGAAATAGGTTAACCATACCTATAGTACGGGTGAGCGGGTCCTCCTAGGGCCCCCCCGGCAGGTCGAGGGAGCTGAAATTCGTGAATCCGTGAGTACACGGAAATCGCGGCTTGAACGTCATACGTGACCTTCGGAGCCGAAATTTGGGCGTGCCCCACGAAGGAAGGCGGGGGCGGTGTTGGGCCGCCGCCCCCTTTATCCCACGGTCTGATAGGATGCTTGCGAGGGCACCTGCCGGTCTCGTAGACCATAGGAC
B4: Culex theileri flavivirus (nucleic acid, listed as Flavivirus sp.)
DNA: ATATAAATCCCAGTTTGGTTAAACCTATTTCAAGGCTTAAGTTGTTTATTATTTTATCGCCGCTCGTGACTATAAAGTTGCCTAGCGGAGAGAGATAAAGAAGAAGGAGTTCAAGGCTCAGGGCAGGGCGCAAGTTCCCTGGTCCCTAGGCCGCTCGCAGGAAGGAGGAGTGAAGAAGAAGAAAGAGAAGGAGAGGACCACCGCCGAAAGAAGGCAGGTGCCTCACAAGAGGGCCAACCAGCGTGTTGGACCAGTGGCCAACGCCGGACGGCGTGGTGGCCTGCTGGGACGCCTGGGGATTGGATGGAGTGCCTTCCTACAGGAAGACATCGTTCAAGCCATC
B5: Yokose virus (nucleic acid, listed as Yokose virus)
DNA: AGTAAATTTTGCGTGCTAGTCGCTGAGCGTCAGACCGCAAAGTGAGTTTTTAGTGATCTAAAGTGAGGAGTTATTCTTACTGTCATCAAACACTACAAATAAACACGTTGAAATTATTTCCGGAAGAACAACTGTCCGGAATCAAAGACG
B6: Hepacivirus B (nucleic acid)
DNA: ACCACAAACACTCCAGTTTGTTACACTCCGCTAGGAATGCTCCTGGAGCACCCCCCCTAGCAGGGCGTGGGGGATTTCCCCTGCCCGTCTGCAGAAGGGTGGAGCCAACCACCTTAGTATGTAGGCGGCGGGACTCATGACGCTCGCGTGATGACAAGCGCCAAGCTTGACTTGGATGGCCCTGATGGGCGTTCATGGGTTCGGTGGTGGTGGCGCTTTAGGCAGCCTCCACGCCCACCACCTCCCAGATAGAGCGGCGGCACTGTAGGGAAGACCGGGGACCGGTCACTACCAAGGACGCAGACCTCTTTTTGAGTATCACGCCTCCGGAAGTAGTTGGGCAAGCCCACCTATATGTGTTGGGATGGTTGGGGTTAGCCATCCATACCGTACTGCCTGATAGGGTCCTTGCGAGGGGATCTGGGAGTCTCGTAGACCGTAGCAC
modifications: Hepacivirus B
B7: GB virus C/Hepatitis G virus (nucleic acid)
DNA: CCCCCGGCACTGGGTGCAAGCCCCAGAAACCGACGCCTATCTAAGTAGACGCAATGACTCGGCGCCGACTCGGCGACCGGCCAAAAGGTGGTGGATGGGTGATGACAGGGTTGGTAGGTCGTAAATCCCGGTCACCTTGGTAGCCACTATAGGTGGGTCTTAAGAGAAGGTTAAGATTCCTCTTGTGCCTGCGGCGAGACCGCGCACGGTCCACAGGTGTTGGCCCTACCGGTGGGAATAAGGGCCCGACGTCAGGCTCGTCGTTAAACCGAGCCCGTTACCCACCTGGGCAAACGACGCCCACGTACGGTCCACGTCGCCCTTCAATGTCTCTCTTGACCAATAGGCGTAGCCGGCGAGTTGACAAGGACCAGTGGGGGCCGGGGGCTTGGAGAGGGACTCCAAGTCCCGCCCTTCCCGGTGGGCCGGGAAATGC
B8: Rosavirus C NFSM6F (nucleic acid)
DNA: CAGGGAGATCTCCATGAATAATCTTTTCCACCCTCTTTAGCGTCTATGCTATTGAGGACGGGTTGGAGCCCCGTTGACCCAGCGTCAGAGTGTGTCGGTAGCAGGCTTTCTGCTCTCGCCCCATGCCGGCCACACCTCCCATTAGTGATGTGAAGGTTGTAAGTTACATGTGAAAAGGTTTCTAATAATTGAGCTGAATGTAGCGATTACCTAAGGTGAGCGGATTCCCCCACGTGGTAACACGTGCCTCTCAGGCCAAAAGCCAAGGTGTTAAAAGCACCCCTTAGGTAGGCCACTACCCCGTGGCCTCAGTTCTCTTAGAAGATTCACTTAGTAGTGTGTGCACTGGCAACTCTTAAGCAGAGCTAGTGAGTGGGCTAAGGATGCCCTGAAGGTACCCGCAGGTAACGTTAAGACACTGTGGATCTGATCAGGGGCTCGAGTGCTGAAGCTTTACAGAGGTAGCTCGAGTTAAAAAACGTCTATGCCCCTCCCCCACGGGAGTGGGGGTTCCCCCACACCAATTTTAGATTGCACT
modifications: Rosavirus C
B9: Zika Virus (nucleic acid, listed as Zika virus)
DNA: AGTTGTTGATCTGTGTGAGTCAGACTGCGACAGTTCGAGTCTGAAGCGAGAGCTAACAACAGTATCAACAGGTTTAATTTGGATTTGGAAACGAGAGTTTCTGGTC
modifications: chemistry not fully specified; the letters are possibly those of the target site
B10: Equine Pegivirus 1 (nucleic acid, listed as Pegivirus sp.)
DNA: AGAATGGGGAGTTAACTCCTGGCACTGGCCCGAAGCATGAACTGATCGCGGTGGCAGGGTTCTTCGGGTAAATCCCGGCCGCGTGTTGTGATTGTGTTAGGGCAGGTGACAGTCGGCAGGGTCGACCCCCTGCTTCAGGACCACTGTCTTCCTGGACGACCGTTGCTGAAAAAGGGCCGCCACGGTCTGTAGCTCGCCGACGCTTCTAATTCAGGCCGGAGGACCACGCTCCGTAATCGAGCCCAAGTACTCAAACCCCAGCACCCCTGGGTCACGCCCTACGCCGCCCTTTTAACGCTTCGGCTAATAGGGTCTATCCGGCGGGTTGACAAAGGGCGCAGGGTTACCTGGTACTACGAGCTTGGGTGTCCCTGGGAGTAATCCCAGGGTGCC
B11: Rodent pegivirus (nucleic acid, listed as Pegivirus sp.)
DNA: GGACTTCGGTCCCCCTGTTACTCTGCGAGCCACCGCAGAGCCAGGGTTGGTACGCCCGAGGTGTTAGACCCCGGCCGAAAGCTCCTAACCATGGGGTTAGTAGGACGTGGTAAATGCCACTGAGGGGTTGGAGAGCTGGTAGAGCGAGTAAGTCGGCGTAAGGCCCGAGTACGGGCCTCCCAGCCCGGGTCAGCCTAAACCTGGCTGTGATACCCGGTGCATGGAGGGCGTGTCCCAACGCTCGATCGCTGTAGGGTGGGTCCCTGCAGTTGGGTGTGGCTACCCTGCTCGTACTGCTTGATAGAGTCCCGGCGGACGGACCAGCTCTCGTCAGTCCGTGGAGTTGCAC
B12: Theiler's disease-associated virus (nucleic acid)
DNA: TGATACCGTGTCCCGGTACGACCTCGCGCGTCCCCAAGCTCGCCCTGAGGGGGGAGCGTAAGGGCGCGTAGTGGGGTAGCCCCCCAAACCGAGCCACCCTAGTGAGTGACTTTAGAATGGTTAGGGAGACTACCGCCTTCGCTGTTTGGGGACCTAATGATCCGCGTGCCAGGGTTCTTCGGGTAAATCCCGGCGCGGTGTTTTGGGTTCAGGGCAGTAGGGGCAGACGGGCCAGCAGTCGCTGGTTCCTGGTACCACCACCCTATCCGGACGACCTCCCTCACGAAAGGTCGCCACGGTCTGTGGCTCGACGACGCCTATAATTCAGTCCGAGGGGCGCAGCCCTCGTTAAACTTAGGCAAGGTTCCTCGCCATTGATTTGGCCAGGGGTTTAAGTGAACGCCGCCCTTTTAATGTTTAATAGGGTTCTTTCCCGGCGGGTTGACAAACACTTCCCTGGGCTCTTCGTTGGCCTCGGTTCCTTGATGCTTCGGCACCCATGAGCGCACAGGGGGGGGACCCTGCGACAGTCCGCCAAGAGGAAAATCCTTCGGGTGACCTCGTGCGCAACCCAATCCCTTCTTCTTCCACATGGCGTGTCTGTGGTGCATGCTGTG
B13: Bussuquara virus (nucleic acid)
DNA: AGTATTTCTTCTGCGTGAGACCATTGCGACAGTTCGTACCGGTGAGTTTTGACTTAACGCAGTGAGAAAAGTTTTCGAGGAAAGACGAGAAGCGAATTCTCTGA
modifications: chemistry not fully specified; the letters are possibly those of the target site

The data set has as its system HEK293 cells. The data set is classed as cell-based, human. As to conditions: luminescence from secreted Gluc in supernatant 24 hours after transfection of HEK293 cells; circular RNA encoding Gluc with the named IRES (UTR truncated to 675 nt).
For B1, the Expression is recorded as 7.50E+04.
For B2, the Expression is on record as 8.07E+04.
The result for B3 reads 8.40E+04; that for B4, 8.52E+04; that for B5, 8.55E+04.
The same measure for B6: 8.84E+04.
The same measure for B7: 1.36E+05; for B8: 6.84E+05; for B9: 8.61E+04.
Consider B10, for which the Expression is recorded as 8.80E+04.
With B11, the Expression is listed as 1.79E+05.
The same measure for B12: 7.84E+04; for B13: 8.20E+04.
